Square brackets hold non-standard residues; d marks the D form. Peptide text beside a SMILES is read from it. * marks the point of attachment. X3 = O=C(CCCCCNCc1nc2c(sc3cc(Br)cnc32)c(=O)[nH]1)*
Experiments:
CAMK1 = CAMK1 (Homo sapiens, UniProt Q14012); experiment: Kinase profiling (radiometric filter-binding); type: biochemical; details: CAMK1, 1 µM inhibitor; read-out: Residual activity, %
Procedure: (§1) Kinase selectivity profiling was performed using the commercial service provided by the MRC PPU International Centre for Kinase Profiling (Dundee, UK) using a radiometric filter-binding assay. Kinases used for analysis were of human origin. The ATP concentration applied for inhibition measurements was at or below the ATP KM value of the particular PK. ARC-3125 and ARC-3126 were screened against 139 PKs, whereas compounds 1, 2, and 8 were screened against 140 PKs. The final total concentration of inhibitors in the selectivity panel was 1 µM. Residual activities were expressed as the percentage of retained activity compared to the control without inhibitor.

DYRK1A = DYRK1A (Homo sapiens, UniProt Q13627); experiment: Kinase profiling (radiometric filter-binding); type: biochemical; details: 1 µM inhibitor, read-out: Residual activity, %
Procedure: as §1

GSK3 = GSK3 (Homo sapiens, UniProt P49841); experiment: Kinase profiling (radiometric filter-binding); type: biochemical; details: GSK3 (Greek letter lost), 1 µM inhibitor; read-out: Residual activity, %
Procedure: as §1

JNK3 = JNK3 (Homo sapiens, UniProt P53779); experiment: Kinase profiling (radiometric filter-binding); type: biochemical; details: JNK3, 1 µM inhibitor; read-out: Residual activity, %
Procedure: as §1

PAK5 = PAK5 (Homo sapiens, UniProt Q9P286); experiment: Kinase profiling (radiometric filter-binding); type: biochemical; details: PAK5, 1 µM inhibitor; read-out: Residual activity, %
Procedure: as §1

PKA = PKA (Homo sapiens, UniProt P17612); experiment: Kinase profiling (radiometric filter-binding); type: biochemical; details: 1 µM inhibitor, read-out: Residual activity, %
Procedure: as §1

PKBβ = PKBβ (Homo sapiens, UniProt P31751); experiment: Kinase profiling (radiometric filter-binding); type: biochemical; details: PKB, second of two PKB lines (Greek letter lost; PKBβ), 1 µM inhibitor; read-out: Residual activity, %
Procedure: as §1

RSK1 = RSK1 (Homo sapiens, UniProt Q15418); experiment: Kinase profiling (radiometric filter-binding); type: biochemical; details: RSK1, 1 µM inhibitor; read-out: Residual activity, %
Procedure: as §1

SYK = SYK (Homo sapiens, UniProt P43405); experiment: Kinase profiling (radiometric filter-binding); type: biochemical; details: 1 µM inhibitor, read-out: Residual activity, %
Procedure: as §1

TAO1 = biological target: T1, TAO1 (Homo sapiens, UniProt Q7L7X3); experiment: Kinase profiling (radiometric filter-binding); type: biochemical; details: TAO1, 1 µM inhibitor; read-out: Residual activity, %
T1 sequence (Q7L7X3 1-1001): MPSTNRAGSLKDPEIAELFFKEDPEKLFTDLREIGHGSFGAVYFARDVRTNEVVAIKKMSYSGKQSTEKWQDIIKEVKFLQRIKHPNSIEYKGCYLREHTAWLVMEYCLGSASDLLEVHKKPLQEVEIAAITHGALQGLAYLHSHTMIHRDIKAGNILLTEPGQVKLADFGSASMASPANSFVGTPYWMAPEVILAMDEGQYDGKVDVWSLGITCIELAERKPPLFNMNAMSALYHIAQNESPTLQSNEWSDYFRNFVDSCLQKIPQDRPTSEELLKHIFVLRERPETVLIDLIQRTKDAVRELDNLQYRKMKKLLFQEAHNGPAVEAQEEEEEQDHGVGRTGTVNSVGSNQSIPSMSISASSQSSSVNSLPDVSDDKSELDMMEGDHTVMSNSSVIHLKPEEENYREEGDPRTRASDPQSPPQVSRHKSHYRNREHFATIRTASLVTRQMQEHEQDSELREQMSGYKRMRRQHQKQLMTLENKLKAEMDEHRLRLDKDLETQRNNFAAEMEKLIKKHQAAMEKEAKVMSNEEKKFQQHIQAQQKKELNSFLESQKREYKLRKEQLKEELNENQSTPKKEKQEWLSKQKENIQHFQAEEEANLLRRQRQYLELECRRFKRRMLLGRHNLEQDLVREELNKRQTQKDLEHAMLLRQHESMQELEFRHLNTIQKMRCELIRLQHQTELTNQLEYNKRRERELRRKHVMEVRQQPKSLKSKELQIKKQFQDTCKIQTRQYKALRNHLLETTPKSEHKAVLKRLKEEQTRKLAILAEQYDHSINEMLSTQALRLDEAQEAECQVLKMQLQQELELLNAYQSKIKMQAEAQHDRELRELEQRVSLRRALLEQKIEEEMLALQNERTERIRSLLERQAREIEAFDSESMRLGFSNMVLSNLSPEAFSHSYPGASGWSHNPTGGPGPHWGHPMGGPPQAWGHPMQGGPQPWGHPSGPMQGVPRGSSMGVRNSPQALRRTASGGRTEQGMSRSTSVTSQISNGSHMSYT
Procedure: as §1

TBK1 = biological target: T2, TBK1 (Homo sapiens, UniProt Q9UHD2); experiment: Kinase profiling (radiometric filter-binding); type: biochemical; details: TBK1, 1 µM inhibitor; read-out: Residual activity, %
T2 sequence (Q9UHD2 1-729): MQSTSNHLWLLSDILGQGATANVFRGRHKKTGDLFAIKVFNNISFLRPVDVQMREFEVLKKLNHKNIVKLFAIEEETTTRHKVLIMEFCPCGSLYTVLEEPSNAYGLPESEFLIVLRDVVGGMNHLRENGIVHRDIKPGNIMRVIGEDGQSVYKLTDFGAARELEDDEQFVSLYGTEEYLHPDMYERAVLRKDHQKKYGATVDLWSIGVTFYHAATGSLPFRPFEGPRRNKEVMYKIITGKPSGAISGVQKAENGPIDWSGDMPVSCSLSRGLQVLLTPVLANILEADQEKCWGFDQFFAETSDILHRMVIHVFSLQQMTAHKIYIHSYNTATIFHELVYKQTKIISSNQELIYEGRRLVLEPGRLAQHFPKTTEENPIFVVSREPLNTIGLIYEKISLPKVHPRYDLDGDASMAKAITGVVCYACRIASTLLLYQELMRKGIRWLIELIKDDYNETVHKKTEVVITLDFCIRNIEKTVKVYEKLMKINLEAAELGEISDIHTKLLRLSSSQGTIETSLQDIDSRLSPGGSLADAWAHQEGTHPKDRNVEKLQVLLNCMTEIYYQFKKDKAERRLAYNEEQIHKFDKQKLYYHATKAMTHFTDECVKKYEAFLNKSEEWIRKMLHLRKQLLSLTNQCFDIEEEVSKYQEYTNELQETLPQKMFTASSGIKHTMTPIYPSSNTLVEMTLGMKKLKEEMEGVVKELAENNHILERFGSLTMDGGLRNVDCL
Procedure: as §1

AMPK = experiment: Kinase profiling (radiometric filter-binding); type: biochemical, human; details: 1 µM inhibitor
Procedure: as §1

PINK = experiment: Kinase profiling (radiometric filter-binding); type: biochemical, human; details: 1 µM inhibitor
Procedure: as §1

p38 MAPK = experiment: Kinase profiling (radiometric filter-binding); type: biochemical, human; details: 1 µM inhibitor
Procedure: as §1

PIM3 = PIM3 (Homo sapiens, UniProt Q86V86); experiment: Binding/displacement assay with FA or TGLI readout; design: made in house; details: mean ± SEM, N = 2
Procedure: The affinities of the compounds toward the PIM family PKs were determined in a binding/displacement assay with measurement of fluorescence anisotropy (FA) and time-gated luminescence intensity (TGLI) (Table 2). For the initial assessment of the selectivity of compounds, PKAcα was used as the reference basophilic kinase [10].
Optical FA measurement modules for 5-TAMRA-labeled compounds (ex. 540(20) nm, em. 590(20) nm and 590(20) nm), for Cy5-labeled compounds (ex. 590(50) nm, em. 675(50) nm and 675(50) nm), and optical TGLI measurement modules for ARC-1451 (ex. 330(60) nm, em. 590(50) nm), for ARC-1188 (ex. 330(60) nm, em. 675(50) nm) were used for assays with PHERAstar microplate reader (BMG Labtech; Ortenberg, Germany). TGLI measurements were performed with a delay time of 50 μs and integration of the signal for 150 μs. In each measurement, emission from 200 flashes of excitation radiation was collected. The measurement solutions (20 µL volumes) were prepared in black 384-well low-binding surface microtiter plates (Corning #4514; Kennebunk, ME, USA) and incubated for 20 min at 30 °C before the measurements. The assay buffer contained HEPES hemisodium salt (pH 7.4, 50 mM), NaCl (150 mM), dithiothreitol (5 mM), bovine serum albumin (0.5 mg/mL), and Tween-20 (0.005%). […] 5.04 (GraphPad Software, Inc.) was used for data analysis with FA [32] or TGLI [33] readouts.

[1] = fourth of four lines (Greek letter lost)
[2] = third of four lines (Greek letter lost)

Chain of PKBβ (P31751 whole entry): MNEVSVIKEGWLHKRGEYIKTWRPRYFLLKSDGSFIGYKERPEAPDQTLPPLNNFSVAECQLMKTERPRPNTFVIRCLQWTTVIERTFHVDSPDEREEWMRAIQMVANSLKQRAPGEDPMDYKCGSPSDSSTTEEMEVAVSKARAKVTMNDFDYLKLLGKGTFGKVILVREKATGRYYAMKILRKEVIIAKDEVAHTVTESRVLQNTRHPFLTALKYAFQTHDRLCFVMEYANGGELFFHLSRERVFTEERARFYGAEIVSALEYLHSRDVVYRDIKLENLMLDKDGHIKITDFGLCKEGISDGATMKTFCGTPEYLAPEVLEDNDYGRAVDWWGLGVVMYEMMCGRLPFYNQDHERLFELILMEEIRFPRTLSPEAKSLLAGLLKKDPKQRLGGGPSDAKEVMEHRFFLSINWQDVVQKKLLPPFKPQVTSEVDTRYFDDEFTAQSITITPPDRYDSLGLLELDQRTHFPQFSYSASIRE
Chain of GSK3 (P49841 whole entry): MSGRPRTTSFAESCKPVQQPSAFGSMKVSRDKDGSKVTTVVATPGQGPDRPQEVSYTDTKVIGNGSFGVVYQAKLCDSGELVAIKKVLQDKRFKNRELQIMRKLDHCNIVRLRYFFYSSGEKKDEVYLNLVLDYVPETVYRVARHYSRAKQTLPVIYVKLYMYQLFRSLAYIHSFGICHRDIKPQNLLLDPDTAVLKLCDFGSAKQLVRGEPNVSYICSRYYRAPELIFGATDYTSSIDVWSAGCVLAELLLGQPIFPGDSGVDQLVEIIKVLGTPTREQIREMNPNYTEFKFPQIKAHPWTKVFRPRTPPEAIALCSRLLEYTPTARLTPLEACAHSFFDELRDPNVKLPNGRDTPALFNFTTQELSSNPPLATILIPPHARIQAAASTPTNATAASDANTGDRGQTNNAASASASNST
Chain of PAK5 (Q9P286 whole entry): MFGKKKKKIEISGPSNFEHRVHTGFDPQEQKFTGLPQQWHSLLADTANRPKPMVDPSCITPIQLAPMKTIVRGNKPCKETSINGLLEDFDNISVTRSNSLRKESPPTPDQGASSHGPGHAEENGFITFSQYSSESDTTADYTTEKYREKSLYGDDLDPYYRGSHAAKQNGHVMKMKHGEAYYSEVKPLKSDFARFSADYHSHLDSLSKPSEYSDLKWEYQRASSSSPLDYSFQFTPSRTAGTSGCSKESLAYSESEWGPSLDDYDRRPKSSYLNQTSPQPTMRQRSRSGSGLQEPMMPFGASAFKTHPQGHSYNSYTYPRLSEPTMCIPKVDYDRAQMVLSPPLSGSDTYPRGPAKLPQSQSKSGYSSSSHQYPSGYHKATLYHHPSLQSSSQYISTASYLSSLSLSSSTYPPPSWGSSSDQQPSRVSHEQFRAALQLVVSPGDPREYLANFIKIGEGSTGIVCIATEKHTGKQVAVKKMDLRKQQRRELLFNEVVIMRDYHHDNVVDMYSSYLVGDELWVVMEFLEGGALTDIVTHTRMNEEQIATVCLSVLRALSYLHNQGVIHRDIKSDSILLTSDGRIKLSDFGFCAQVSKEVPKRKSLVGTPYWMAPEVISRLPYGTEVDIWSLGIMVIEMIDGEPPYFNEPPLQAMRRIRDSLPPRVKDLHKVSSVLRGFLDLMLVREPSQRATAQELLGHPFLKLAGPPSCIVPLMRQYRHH
Chain of RSK1 (Q15418 whole entry): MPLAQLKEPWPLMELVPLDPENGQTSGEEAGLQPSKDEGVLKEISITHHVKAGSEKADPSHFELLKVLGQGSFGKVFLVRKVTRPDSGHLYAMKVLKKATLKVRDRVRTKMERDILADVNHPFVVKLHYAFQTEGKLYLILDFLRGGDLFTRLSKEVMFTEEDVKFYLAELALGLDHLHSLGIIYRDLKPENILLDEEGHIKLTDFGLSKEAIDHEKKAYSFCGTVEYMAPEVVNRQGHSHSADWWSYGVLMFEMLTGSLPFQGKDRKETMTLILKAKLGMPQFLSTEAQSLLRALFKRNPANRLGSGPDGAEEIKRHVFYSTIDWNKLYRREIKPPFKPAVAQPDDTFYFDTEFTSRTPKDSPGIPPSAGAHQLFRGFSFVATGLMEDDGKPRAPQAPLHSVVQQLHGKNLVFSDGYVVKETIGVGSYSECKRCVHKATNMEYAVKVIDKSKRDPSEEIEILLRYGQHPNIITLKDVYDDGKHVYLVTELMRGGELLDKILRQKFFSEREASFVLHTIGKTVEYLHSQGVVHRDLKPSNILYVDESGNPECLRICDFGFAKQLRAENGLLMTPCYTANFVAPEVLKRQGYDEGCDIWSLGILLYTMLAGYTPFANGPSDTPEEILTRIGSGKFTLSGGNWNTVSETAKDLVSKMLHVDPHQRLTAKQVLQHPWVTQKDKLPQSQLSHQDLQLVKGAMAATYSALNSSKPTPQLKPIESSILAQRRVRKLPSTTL
Chain of JNK3 (P53779 whole entry): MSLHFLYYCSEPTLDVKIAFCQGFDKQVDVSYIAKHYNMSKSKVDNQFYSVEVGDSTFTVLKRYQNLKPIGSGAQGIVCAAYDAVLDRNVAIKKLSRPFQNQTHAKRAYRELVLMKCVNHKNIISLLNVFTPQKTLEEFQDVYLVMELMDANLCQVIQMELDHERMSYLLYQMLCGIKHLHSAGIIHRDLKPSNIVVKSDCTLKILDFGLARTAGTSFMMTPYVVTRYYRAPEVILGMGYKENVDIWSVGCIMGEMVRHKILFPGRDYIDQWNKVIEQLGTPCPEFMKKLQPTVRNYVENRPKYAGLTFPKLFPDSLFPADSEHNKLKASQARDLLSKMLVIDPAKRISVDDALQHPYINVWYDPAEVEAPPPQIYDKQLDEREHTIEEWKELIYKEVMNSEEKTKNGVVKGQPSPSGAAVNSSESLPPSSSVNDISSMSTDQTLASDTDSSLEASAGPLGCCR
Chain of CAMK1 (Q14012 whole entry): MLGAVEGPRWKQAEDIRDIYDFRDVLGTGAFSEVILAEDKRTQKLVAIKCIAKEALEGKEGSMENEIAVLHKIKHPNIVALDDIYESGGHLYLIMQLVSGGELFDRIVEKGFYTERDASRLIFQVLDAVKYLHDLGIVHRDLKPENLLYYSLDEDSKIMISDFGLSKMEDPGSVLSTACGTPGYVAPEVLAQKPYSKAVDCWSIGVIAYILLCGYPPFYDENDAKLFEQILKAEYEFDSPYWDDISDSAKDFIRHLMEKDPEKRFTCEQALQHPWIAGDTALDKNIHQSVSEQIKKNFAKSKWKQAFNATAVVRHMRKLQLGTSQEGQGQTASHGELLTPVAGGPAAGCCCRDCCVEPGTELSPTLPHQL

## N=C(N)NCCC[C@@H](NC(=O)CCCCCNC(=O)Cn1cnc2c(I)c(I)c(I)c(I)c21)C(=O)N[C@H](CCCNC(=N)N)C(=O)N[C@H](CCCNC(=N)N)C(=O)N[C@H](CCCNC(=N)N)C(=O)N[C@H](CCCNC(=N)N)C(=O)N[C@H](CCCNC(=N)N)C(=O)N[C@H](CCCCN)C(N)=O [ARC-3125, TIBI-CH2-C(=O)-Ahx-(D-Arg)6-D-Lys-NH2]
CAMK1
  remaining activity at 1 µM: 3 ± 11%
DYRK1A
  remaining activity at 1 µM: 28 ± 7%
GSK3
  remaining activity at 1 µM: 140 ± 13%
JNK3
  remaining activity at 1 µM: 120 ± 2%
PAK5
  remaining activity at 1 µM: 25 ± 6%
PKA
  remaining activity at 1 µM: 7 ± 3%
PKBβ
  remaining activity at 1 µM: 1 ± 1%
RSK1
  remaining activity at 1 µM: 19 ± 1%
SYK
  remaining activity at 1 µM: 94 ± 10%
TAO1
  remaining activity at 1 µM: 32 ± 6%
TBK1
  remaining activity at 1 µM: 68 ± 3%

## N=C(N)NCCC[C@@H](NC(=O)CNC(=O)[C@@H](CCCNC(=N)N)NC(=O)[C@@H](CCCNC(=N)N)NC(=O)CCCCCCCNCc1nc2c(sc3cc(Br)cnc32)c(=O)[nH]1)C(=O)N[C@H](CCCCN)C(N)=O [Compound 1, BPTP-Aoc-(D-Arg)2-Gly-D-Arg-D-Lys-NH2]
CAMK1
  remaining activity at 1 µM: 81 ± 18%
DYRK1A
  remaining activity at 1 µM: 74%
GSK3
  remaining activity at 1 µM: 110 ± 12%
JNK3
  remaining activity at 1 µM: 92%
PAK5
  remaining activity at 1 µM: 112 ± 3%
PKA
  remaining activity at 1 µM: 100 ± 9%
PKBβ
  remaining activity at 1 µM: 115 ± 26%
RSK1
  remaining activity at 1 µM: 95%
SYK
  remaining activity at 1 µM: 133 ± 15%
TAO1
  remaining activity at 1 µM: 106 ± 10%
TBK1
  remaining activity at 1 µM: 113 ± 29%
AMPK
  Residual activity, %: 92 ± 9%
PINK
  Residual activity, %: 116 ± 5%
p38 MAPK; [1]
  Residual activity, %: 116 ± 6%
p38 MAPK; [2]
  Residual activity, %: 109 ± 7%
PIM3
  Kd: 5.2 ± 1 nM

## N=C(N)NCCC[C@@H](NC(=O)CCCCCNCc1nc2c(sc3cc(Br)cnc32)c(=O)[nH]1)C(=O)N[C@H](CCCNC(=N)N)C(=O)N[C@H](CCCNC(=N)N)C(=O)N[C@H](CCCNC(=N)N)C(=O)N[C@H](CCCNC(=N)N)C(=O)N[C@H](CCCNC(=N)N)C(=O)N[C@H](CCCCN)C(N)=O [ARC-3126, BPTP-Ahx-(D-Arg)6-D-Lys-NH2] (X3-[dR][dR][dR][dR][dR][dR][dK]-NH2)
CAMK1
  remaining activity at 1 µM: 55 ± 9%
DYRK1A
  remaining activity at 1 µM: 99 ± 6%
GSK3
  remaining activity at 1 µM: 80%
JNK3
  remaining activity at 1 µM: 121 ± 5%
PAK5
  remaining activity at 1 µM: 89 ± 2%
PKA
  remaining activity at 1 µM: 97%
PKBβ
  remaining activity at 1 µM: 86 ± 10%
RSK1
  remaining activity at 1 µM: 82 ± 10%
SYK
  remaining activity at 1 µM: 75 ± 20%
TAO1
  remaining activity at 1 µM: 95 ± 3%
TBK1
  remaining activity at 1 µM: 105 ± 12%
AMPK
  Residual activity, %: 38 ± 4%
p38 MAPK; [1]
  Residual activity, %: 129 ± 10%
p38 MAPK; [2]
  Residual activity, %: 111 ± 4%
PIM3
  Kd: 2 ± 0.5 nM

## N=C(N)NCCC[C@@H](NC(=O)CNC(=O)[C@@H](CCCNC(=N)N)NC(=O)[C@@H](CCCNC(=N)N)NC(=O)Cn1cc(CNCc2nc3c(sc4ccc(Br)cc43)c(=O)[nH]2)nn1)C(=O)N[C@H](CCCCN)C(N)=O [Compound 3, BBTP-Amt-(D-Arg)2-Gly-D-Arg-D-Lys-NH2]
CAMK1
  remaining activity at 1 µM: 49 ± 11%
DYRK1A
  remaining activity at 1 µM: 37 ± 15%
GSK3
  remaining activity at 1 µM: 64 ± 8%
JNK3
  remaining activity at 1 µM: 113 ± 22%
PAK5
  remaining activity at 1 µM: 92 ± 5%
PKA
  remaining activity at 1 µM: 82 ± 10%
PKBβ
  remaining activity at 1 µM: 54 ± 6%
RSK1
  remaining activity at 1 µM: 74 ± 12%
SYK
  remaining activity at 1 µM: 114 ± 2%
TAO1
  remaining activity at 1 µM: 80 ± 4%
TBK1
  remaining activity at 1 µM: 46 ± 4%
AMPK
  Residual activity, %: 47 ± 6%
PINK
  Residual activity, %: 92 ± 0%
p38 MAPK; [1]
  Residual activity, %: 111 ± 1%
p38 MAPK; [2]
  Residual activity, %: 108 ± 8%
PIM3
  Kd: 7 ± 1 nM

## N=C(N)NCCC[C@@H](NC(=O)CNC(=O)[C@@H](CCCNC(=N)N)NC(=O)[C@@H](CCCNC(=N)N)NC(=O)CCCCCCCNCc1nc2c(sc3ccc(Br)cc32)c(=O)[nH]1)C(=O)N[C@H](CCCCN)C(N)=O [Compound 2, BBTP-Aoc-(D-Arg)2-Gly-D-Arg-D-Lys-NH2]
CAMK1
  remaining activity at 1 µM: 81%
DYRK1A
  remaining activity at 1 µM: 5%
GSK3
  remaining activity at 1 µM: 75 ± 8%
JNK3
  remaining activity at 1 µM: 108 ± 3%
PAK5
  remaining activity at 1 µM: 100 ± 2%
PKA
  remaining activity at 1 µM: 85 ± 6%
PKBβ
  remaining activity at 1 µM: 101%
RSK1
  remaining activity at 1 µM: 31%
SYK
  remaining activity at 1 µM: 123 ± 3%
TAO1
  remaining activity at 1 µM: 49%
TBK1
  remaining activity at 1 µM: 113%
AMPK
  Residual activity, %: 91 ± 4%
PINK
  Residual activity, %: 121 ± 17%
p38 MAPK; [1]
  Residual activity, %: 115 ± 0%
p38 MAPK; [2]
  Residual activity, %: 117 ± 1%
PIM3
  Kd: 2 ± 0.4 nM

## CN(C)c1ccc2c(c1)Oc1cc(N(C)C)ccc1C21OC(=O)c2cc(C(=O)NCCCC[C@@H](NC(=O)[C@@H](CCCNC(=N)N)NC(=O)CNC(=O)[C@@H](CCCNC(=N)N)NC(=O)[C@@H](CCCNC(=N)N)NC(=O)CCCCc3cn(Cc4nc5c(sc6ccc(Br)cc65)c(=O)[nH]4)nn3)C(N)=O)ccc21 [Compound 8, BBTP-Tap-(D-Arg)2-Gly-D-Arg-[D-Lys(5-TAMRA)]-NH2]
CAMK1
  remaining activity at 1 µM: 49%
DYRK1A
  remaining activity at 1 µM: 37%
PKBβ
  remaining activity at 1 µM: 54%
RSK1
  remaining activity at 1 µM: 74%
TAO1
  remaining activity at 1 µM: 80%
TBK1
  remaining activity at 1 µM: 46%
PIM3
  Kd: 15.7 ± 3 nM

Source: publication PMC8307404, “Crystal Structure-Guided Design of Bisubstrate Inhibitors and Photoluminescent Probes for Protein Kinases of the PIM Family” (Molecules, 2021)
